According to patent US20240376151A1, “STAPLED PEPTIDES AND METHODS THEREOF” (FOG PHARMACEUTICALS, INC., priority 2022, published 2024):

What was measured:
[1] = target: T1, RNF31 UBA domain (Homo sapiens, UniProt Q96EP0); test: Phage Library Screening with NGS, RNF31 UBA domain; assay type: binding; settings: for phage screen NGS read-out at Target Concentration 10 / phage screen NGS read-out at Target Concentration 30 / phage screen NGS read-out at Target Concentration 100 / phage screen NGS read-out at Target Concentration 300: no competitor; for Phage library screen NGS readout, Target Concentration 10 / Phage library screen NGS readout, Target Concentration 30 / Phage library screen NGS readout, Target Concentration 100 / Phage library screen NGS readout, Target Concentration 300 / Phage library screen NGS readout, Target Concentration 1000: RNF31 UBA domain cluster C46; for Phage library screen NGS readout, BLANK: cluster C46
T1 construct: RNF31 UBA domain protein (residues 480-639) with N-terminal Thioredoxin-TEV-6×his-yBBr-3C tags; Thioredoxin (N, cleaved yes); made in house; host or cells: E. coli BL21 (DE3) pLysS
T1 sequence (Q96EP0 480-639): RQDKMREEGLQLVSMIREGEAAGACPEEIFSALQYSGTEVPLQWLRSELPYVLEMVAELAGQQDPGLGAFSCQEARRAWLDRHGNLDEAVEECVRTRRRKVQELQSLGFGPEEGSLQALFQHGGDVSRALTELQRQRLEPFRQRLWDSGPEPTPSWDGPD

[2] = target: T2, beta-catenin (Homo sapiens, UniProt P35222); test: Phage Library Screening with NGS, beta-catenin; assay type: binding; settings: for Target Concentration 10 (phage screen NGS readout): beta-catenin target concentration 10; for Target Concentration 10 (phage screen NGS readout) / Target Concentration 30 (phage screen NGS readout) / Target Concentration 100 (phage screen NGS readout) / Target Concentration 300 (phage screen NGS readout): no competitor; for Target Concentration 30 (phage screen NGS readout): beta-catenin target concentration 30; for Target Concentration 100 (phage screen NGS readout): beta-catenin target concentration 100; for Target Concentration 300 (phage screen NGS readout): beta-catenin target concentration 300; for Target Concentration 1000 (phage screen NGS readout): beta-catenin target concentration 1000
T2 construct: made in house; host or cells: E. coli BL21 (DE3) pLysS
T2 sequence (P35222 134-665): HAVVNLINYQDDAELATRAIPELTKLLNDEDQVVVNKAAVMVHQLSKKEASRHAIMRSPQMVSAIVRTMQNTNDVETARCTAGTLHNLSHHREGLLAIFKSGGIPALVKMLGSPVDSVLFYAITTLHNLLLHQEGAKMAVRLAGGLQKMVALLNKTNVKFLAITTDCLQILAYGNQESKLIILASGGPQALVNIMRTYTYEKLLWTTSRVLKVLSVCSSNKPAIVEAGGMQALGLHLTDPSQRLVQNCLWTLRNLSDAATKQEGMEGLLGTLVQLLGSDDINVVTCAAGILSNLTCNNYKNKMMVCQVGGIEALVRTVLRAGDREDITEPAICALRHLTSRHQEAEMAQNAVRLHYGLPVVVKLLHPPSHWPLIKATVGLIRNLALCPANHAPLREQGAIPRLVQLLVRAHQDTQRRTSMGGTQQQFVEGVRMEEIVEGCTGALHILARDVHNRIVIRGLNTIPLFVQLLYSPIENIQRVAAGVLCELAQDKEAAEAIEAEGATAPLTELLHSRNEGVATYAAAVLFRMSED

[3] = target concentration 1000, first column
[4] = target concentration 1000, second column

Sequence	phage screen NGS read-out at Target Concentration 10 [1]	phage screen NGS read-out at Target Concentration 30 [1]	phage screen NGS read-out at Target Concentration 100 [1]	phage screen NGS read-out at Target Concentration 300 [1]	Target Concentration BLANK (phage screen NGS readout) ([2]; first column)	Target Concentration BLANK (phage screen NGS readout) ([2]; fourth column)	Target Concentration BLANK (phage screen NGS readout) ([2]; second column)	Target Concentration BLANK (phage screen NGS readout) ([2]; third column)	Target Concentration 10 (phage screen NGS readout) [2]	Target Concentration 30 (phage screen NGS readout) [2]	Target Concentration 100 (phage screen NGS readout) [2]	Target Concentration 300 (phage screen NGS readout) [2]	Target Concentration 1000 (phage screen NGS readout) ([2]; first 1000 column)	Target Concentration 1000 (phage screen NGS readout) ([2]; second 1000 column)	other results
DPAAFVCEMAANDCLYT	0	1	0	2											
DPAALACLSAAVYCEMY															Phage library screen NGS readout, Target Concentration 10 [1]: 6; Phage library screen NGS readout, Target Concentration 30 [1]: 49; Phage library screen NGS readout, Target Concentration 100 [1]: 132; Phage library screen NGS readout, Target Concentration 300 [1]: 200; Phage library screen NGS readout, Target Concentration 1000 [1, 3]: 199; Phage library screen NGS readout, Target Concentration 1000 [1, 4]: 246; Phage library screen NGS readout, BLANK ([1]; column 1 of 5): 0; Phage library screen NGS readout, BLANK ([1]; column 2 of 5): 1; Phage library screen NGS readout, BLANK ([1]; column 3 of 5): 2; Phage library screen NGS readout, BLANK ([1]; column 4 of 5): 0; Phage library screen NGS readout, BLANK ([1]; column 5 of 5): 1
DPAAQACLSAAVFCAWY															Phage library screen NGS readout, Target Concentration 10 [1]: 5; Phage library screen NGS readout, Target Concentration 30 [1]: 19; Phage library screen NGS readout, Target Concentration 100 [1]: 45; Phage library screen NGS readout, Target Concentration 300 [1]: 86; Phage library screen NGS readout, Target Concentration 1000 [1, 3]: 88; Phage library screen NGS readout, Target Concentration 1000 [1, 4]: 97; Phage library screen NGS readout, BLANK ([1]; column 1 of 5): 0; Phage library screen NGS readout, BLANK ([1]; column 2 of 5): 0; Phage library screen NGS readout, BLANK ([1]; column 3 of 5): 0; Phage library screen NGS readout, BLANK ([1]; column 4 of 5): 0; Phage library screen NGS readout, BLANK ([1]; column 5 of 5): 0
DPAASQCFSAAVYCAWI															Phage library screen NGS readout, Target Concentration 10 [1]: 0; Phage library screen NGS readout, Target Concentration 30 [1]: 0; Phage library screen NGS readout, Target Concentration 100 [1]: 8; Phage library screen NGS readout, Target Concentration 300 [1]: 13; Phage library screen NGS readout, Target Concentration 1000 [1, 3]: 16; Phage library screen NGS readout, Target Concentration 1000 [1, 4]: 13; Phage library screen NGS readout, BLANK ([1]; column 1 of 5): 0; Phage library screen NGS readout, BLANK ([1]; column 2 of 5): 0; Phage library screen NGS readout, BLANK ([1]; column 3 of 5): 0; Phage library screen NGS readout, BLANK ([1]; column 4 of 5): 1; Phage library screen NGS readout, BLANK ([1]; column 5 of 5): 0
DPAAYLCDMAAHNCLYL	1	0	0	0											
DPADLICQLAAANCIYL	0	0	2	30											
DPADLLCHMAAQNCLYR	1	0	0	0											
DPADWTCVLAAHNCLYT	0	0	0	1											
DPADYICYLAANNCLYH	3	1	4	19											
DPAVLQCYEAAFICEYM					0	0	0	0	0	0	1	6	4	5	
DPAVMACYEAAFQCAYW					0	0	0	1	0	0	0	4	12	0	
DPAVQDCEWAAIYCELI					0	1	1	0	0	9	10	158	104	157	
DPAVVECYEAAYTCQYI					0	0	0	0	0	0	0	0	0	13	
DPAWILCDWAAMHCELV					0	0	0	0	0	0	2	3	1	18	
DPAWQNCTWAAFHCELL					0	0	1	0	0	10	52	194	158	163	
DPAWSDCIWAAEHCQLI					0	0	1	0	0	3	5	127	109	85	
DPAWWQCDHAALICIAE					0	0	1	2	28	127	422	637	830	731	
DPAYTYCQWAAEHCSLL					2	2	2	1	5	5	3	88	115	137	
DPAYWDCTHAALLCNLD					0	0	1	2	3	14	152	42	543	409	
DPAYWVCEHAALLCTDY					3	0	3	1	5	18	85	337	283	227	
